Results: US20060094101A1 (Pfizer, published 2006)

B1: V5-tagged Shc (V5-p66 Shc A) (other, not shown: small tags and cut ends)
chain: MDLLPPKPKYNPLRNESLSSLEEGASGSTPPEELPSPSASSLGPILPPLPGDDSPLPCVPSFPRMSNLKLANPAGGPWGLKGSQERLLKMGKGVQGQPFGLRPLAPPPDMNKLSGGGGRRTRVEGGQLGGEEWTRHGSFVNKPTRGWLHPNDKVMGPGVSYLVRYMGCVEVLQSMRALDFNTRTQVTREAISLVCEAVPGAKGATRRRKPCSRPLSSILGRSNLKFAGMPITLTVSTSSLNLMAADCKQIIANHHMQSISFASGGDPDTAEYVAYVAKDPVNQRACHILECPEGLAQDVISTIGQAFELRFKQYLRNPPKLVTPHDRMAGFDGSAWDEEEEEPPDHQYYNDFPGKEPPLGGVVDMRLREGAARPTLPSAQMSSHLGATLPIGQHAAGDHEVRKQMLPPPPCPGRELFDDPSYVNIQNLDKARQAGGGAGPPNPSLNGSAPRDLFDMKPFEDALRVPPPPQSMSMAEQLQGEPWFHGKLSRREAEALLQLNGDFLVRESTTTPGQYVLTGLQSGQPKHLLLVDPEGVVRTKDHRFESVSHLISYHMDNHLPIISAGSELCLQQPVDRKV
B2: src homology and collagen (Shc; Shc A), yeast two-hybrid library clone (other, not shown: large carriers)
chain: B1 chain
notes: Clone from a pretransformed human bone marrow cDNA library
B3: human polyhomeotic 2 (HPH2), yeast two-hybrid library clone (other, not shown: large carriers)
chain: MCLRGGCSPRAPAAAPQPRPPPALPPRPRAPVPASRPGRPLLTPARPCGRMRRGSPGPRLGGSRGERRRPAGRDPARVGPGQGLRRPARPGPAAWTETGQGIVHALTDLSIPGMTSGNGNSASSIAGTAPQNGENKPPQAIVKPQILTHVIEGFVIQEGADVSRWDARLLVGNLKKKYAQGFLPEKLPQQDHTTTTDSEMEEPYLQESKEEGAPLKLKCELCGRVDFAYKFKRSKRFCSMACAKRYNVGCTKRVGLFHSDRSKLQKAGAATHNRRRPAKPVCHHLPRIPRSSQQALCPFRLLLLCVTHSQEDSSRCSDNSSYEEPLSPISASSSTSAGDKASGTWSSPTCICGTWWAWDTTSCQVSHQVNVEDVYEFIRSLPGCQEIAEEFRAQEIDGQALLLLKEDHLMSVMNIKLGPALKIYARISMLKDS
notes: Clone from a pretransformed human bone marrow cDNA library; also called human polyhomeotic homolog 2
B4: p53, yeast two-hybrid control bait (other, UniProt P04386 1-147, looked up)
chain: MKLLSSIEQACDICRLKKLKCSKEKPKCAKCLKNNWECRYSPKTKRSPLTRAHLTEVESRLERLEQLFLLIFPREDLDMILKMDSLQDIKALLTGLFVQDNVNKDAVTDRLASVETDMPLTLRQHRISATSSSEESSNKGQRQLTVSPVTETPGPVAPAPATPWPLSSFVPSQKTYQGNYGFHLGFLQSGTAKSVMCTYSPPLNKLFCQLAKTCPVQLWVSATPPAGSRVRAMAIYKKSQHMTEVVRRCPHHERCSDGDGLAPPQHLIRVEGNLYPEYLEDRQTFRHSVVVPYEPPEAGSEYTTIHYKYMCNSSCMGGMNRRPILTIITLEDSSGNLLGRDSFEVRVCACPGRDRRTEEENFRKKEVLCPELPPGSAKRALPTCTSASPPQKKKPLDGEYFTLKIRGRKRFEMFRELNEALELKDAHATEESGDSRAHSSYLKTKKGQSTSRHKKTMVKKVGPDSD
notes: Specificity control bait
B5: Lamin (Clontech), yeast two-hybrid control bait (other, UniProt P04386 1-147, looked up)
chain: MKLLSSIEQACDICRLKKLKCSKEKPKCAKCLKNNWECRYSPKTKRSPLTRAHLTEVESRLERLEQLFLLIFPREDLDMILKMDSLQDIKALLTGLFVQDNVNKDAVTDRLASVETDMPLTLRQHRISATSSSEESSNKGQRQLTVSSEEVVSREVSGIKAAYEAELGDARKTLDSVAKERARLQLELSKVREEFKELKARNTKKEGDLIAAQARLKDLEALLNSKEAALSTALSEKRTLEGELHDLRGQVAKLEAALGEAKKQLQDEMLRRVDAENRLQTMKEELDFQKNIYSEELRETKRRHETRLVEID
notes: Specificity control bait; also called lamin (L)

Columns and labels:
MYC-tagged MK2 = MYC-tagged MK2 (UniProt P49137 1-400, limits assumed); assay: cell-based or functional assay
MYC-tagged MK2, sequence (P49137 whole entry): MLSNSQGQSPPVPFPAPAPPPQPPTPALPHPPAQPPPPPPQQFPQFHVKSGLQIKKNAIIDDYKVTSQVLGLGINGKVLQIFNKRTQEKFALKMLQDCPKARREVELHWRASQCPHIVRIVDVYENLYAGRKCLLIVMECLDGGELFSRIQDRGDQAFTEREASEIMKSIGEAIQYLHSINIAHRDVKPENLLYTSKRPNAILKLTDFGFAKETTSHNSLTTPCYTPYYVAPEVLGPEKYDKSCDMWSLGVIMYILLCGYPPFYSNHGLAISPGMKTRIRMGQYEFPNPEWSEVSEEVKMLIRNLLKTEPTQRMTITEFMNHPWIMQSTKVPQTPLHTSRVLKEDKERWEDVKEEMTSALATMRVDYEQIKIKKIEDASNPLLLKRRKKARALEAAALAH

[1] = target: B5; assay: yeast two-hybrid, growth and color on selective media
Description: (§1) Independent sequences were transformed into bacteria (DH5 α) from which DNA was subsequently isolated. Next, the DNA was transformed into yeast strain AH109. […] Each independent sequence strain transformed in AH109 was mated with Y187 yeast transformed with each of the three baits. Independent clones which interacted with MK2 and MK2 K93R, but not with empty vector pGBKT7, TPL2, p53, or Lamin, as assayed by their growth on SD/-Ade/-His/-Leu/-Trp and blue color on SD/-Leu/-Trp X-α-GAL, were identified as clones which included DNA inserts encoding specific MK2 interacting proteins (FIG. 9A). […] One protein encoded by an independent DNA sequence characterized was “similar to smoothelin” (STS).

[2] = target: T1, TPL2, yeast two-hybrid control bait (yeast, UniProt P04386 1-147; P41279 1-467, limits assumed); assay: yeast two-hybrid, growth on SD/-Ade/-His/-Leu/-Trp and blue color on SD/-Leu/-Trp X-α-GAL
T1 construct: Specificity control bait
Description: as §1

[3] = target: B4; assay: as above
Description: as §1

[4] = target: T2, similar to smoothelin (STS), yeast two-hybrid library clone (yeast; human, UniProt P53814 2-868); assay: as above
T2 construct: Clone from a pretransformed human bone marrow cDNA library
T2 sequence (P53814 other isoform, or with tags, fused parts or gaps limits assumed): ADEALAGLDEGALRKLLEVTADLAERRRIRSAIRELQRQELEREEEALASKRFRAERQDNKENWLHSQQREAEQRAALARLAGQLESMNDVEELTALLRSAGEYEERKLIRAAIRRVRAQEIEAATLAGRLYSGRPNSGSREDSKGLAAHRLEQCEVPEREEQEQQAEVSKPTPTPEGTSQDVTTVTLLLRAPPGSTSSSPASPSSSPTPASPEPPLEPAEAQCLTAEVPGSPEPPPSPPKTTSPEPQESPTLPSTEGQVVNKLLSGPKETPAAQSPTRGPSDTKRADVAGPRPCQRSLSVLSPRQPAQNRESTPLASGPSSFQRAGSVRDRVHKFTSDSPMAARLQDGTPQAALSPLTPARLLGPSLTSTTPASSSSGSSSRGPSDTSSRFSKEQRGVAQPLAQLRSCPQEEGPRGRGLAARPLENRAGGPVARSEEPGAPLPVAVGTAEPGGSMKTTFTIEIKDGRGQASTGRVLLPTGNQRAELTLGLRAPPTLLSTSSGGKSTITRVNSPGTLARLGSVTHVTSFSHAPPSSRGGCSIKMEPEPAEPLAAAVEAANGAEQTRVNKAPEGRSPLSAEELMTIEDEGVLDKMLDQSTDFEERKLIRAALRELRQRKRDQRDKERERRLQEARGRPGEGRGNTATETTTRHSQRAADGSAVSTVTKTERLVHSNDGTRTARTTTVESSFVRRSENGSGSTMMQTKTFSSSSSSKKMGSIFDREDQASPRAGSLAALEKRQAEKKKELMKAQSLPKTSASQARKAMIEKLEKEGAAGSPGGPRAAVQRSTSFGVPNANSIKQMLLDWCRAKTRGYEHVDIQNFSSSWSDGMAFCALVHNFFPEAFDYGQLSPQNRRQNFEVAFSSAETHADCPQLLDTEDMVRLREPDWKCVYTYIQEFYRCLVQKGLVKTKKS
Description: as §1

[5] = target: T2, similar to smoothelin (STS), yeast …; assay: yeast two-hybrid, growth and color on selective media
Description: as §1

| Binder | binding result [1] | binding result [2] | binding result [3] | further results |
| --- | --- | --- | --- | --- |
| B1 | – | – | – | TNF-α biosynthesis (secreted TNF-α by ELISA) in LPS-stimulated RAW264.7 cells (MYC-tagged MK2): 1.5 fold; basal pHsp 27 levels in HeLa cells (immunoblot, densitometry) (MYC-tagged MK2): 3 fold |
| B2 | no binding | no binding | no binding | – |
| B3 | no binding | no binding | no binding | – |
| B4 | – | – | – | binding result [4]: no binding |
| B5 | – | – | – | binding result [5]: no binding |
